Test results as given in publication PMC5542595.

Target: Leptospira interrogans heme oxygenase, wild type, ferric heme complex (Leptospira interrogans)
Experiment: cross-linking

Leptospira interrogans ferredoxin-NADP+ reductase, wild type (enzyme)
stoichiometry N: 1
